The source of these data is paper PMC9495943, “Recombinant Expression of Archaeal Superoxide Dismutases in Plant Cell Cultures: A Sustainable Solution with Potential Application in the Food Industry” (Antioxidants, 2022).

This series concerns the molecule itself. Put plainly: SEC; Superdex 200 calibrated with standard protein markers; 50 mM Tris-HCl pH 7.5, 50 mM NaCl; partially purified SOD (ultrafiltration retentate of transformed tomato cell extract) loaded; apparent native mass compared with the theoretical mass of a homodimer. In general terms: In gel filtration, larger molecules generally elute earlier.

The term stoichiometry N denotes the number of molecules, sites or subunits per partner or assembly.

B1: Superoxide dismutase (Mn/Fe-dependent SOD) from Saccharolobus solfataricus P2 (enzyme, UniProt P80857 1-211, looked up)
chain: MTLQIQFKKYELPPLPYKIDALEPYISKDIIDVHYNGHHKGYVNGANSLLERLEKVVKGDLQTGQYDIQGIIRGLTFNINGHKLHALYWENMAPSGKGGGKPGGALADLINKQYGSFDRFKQVFTETANSLPGTGWAVLYYDTESGNLQIMTFENHFQNHIAEIPIILILDEFEHAYYLQYKNKRADYVNAWWNVVNWDAAEKKLQKYLTK
notes: Mn/Fe-dependent superoxide dismutase of Saccharolobus solfataricus P2; whole CDS (636 bp) amplified from genomic DNA and expressed in tomato cells; subunit of approximately 24 kDa; ORF cloned into the NcoI-XbaI sites of pCK-EGFP, then into pBI121; No tag is mentioned; also called SODSs; sodSs product
Take B1: the “stoichiometry N” value came out at 2.
